# Laboratory results reported in patent US12545899B2, “Luciferase enzymes for use with thermostable luciferins in bioluminescent assays” (Promega Corporation, priority 2018, dated 2026).
# What was measured:
# [1] = Brightness of additional luciferase enzyme variants with CS0280; type: biochemical; settings: for luminescence CS0280 BG / luminescence CS0280 DR / Fold improvement over ATG3707, CS0280 BG / Fold improvement over ATG3707, CS0280 DR: Table 7B; for luminescence CS0280 BG / luminescence CS0280 DR / Fold-improvement over ATG3707, CS0280 BG / Fold-improvement over ATG3707, CS0280 DR: 1 mM CS0280; for luminescence CS0280 BG / Fold improvement over ATG3707, CS0280 BG / Fold-improvement over ATG3707, CS0280 BG: Bright-Glo buffer; for luminescence CS0280 DR / Fold improvement over ATG3707, CS0280 DR / Fold-improvement over ATG3707, CS0280 DR: Detection Reagent buffer; for Fold-improvement over ATG3707, CS0280 BG / Fold-improvement over ATG3707, CS0280 DR: Table 7A
# Method: (§1) Additional luciferase enzyme variants were generated and evaluated for their stability and activity. To evaluate the additional luciferase enzyme variants, 0.005 mg/ml luciferase enzyme variant was mixed with 1 mM ATP+1 mM substrate in either Bright-Glo™ (BG) or Detection Reagent (DR) buffers. […] (Table 7A is colored according to their relative luminescence values within each column across a red to green color spectrum with the lowest values colored red and the highest values colored green.)
# [2] = Brightness of additional luciferase enzyme variants with CS0333; type: biochemical; settings: for luminescence CS0333 BG / luminescence CS0333 DR / Fold improvement over ATG3707, CS0333 BG / Fold improvement over ATG3707, CS0333 DR: Table 7B; for luminescence CS0333 BG / luminescence CS0333 DR / Fold-improvement over ATG3707, CS0333 BG / Fold-improvement over ATG3707, CS0333 DR: 1 mM CS0333; for luminescence CS0333 BG / Fold improvement over ATG3707, CS0333 BG / Fold-improvement over ATG3707, CS0333 BG: Bright-Glo buffer; for luminescence CS0333 DR / Fold improvement over ATG3707, CS0333 DR / Fold-improvement over ATG3707, CS0333 DR: Detection Reagent buffer; for Fold-improvement over ATG3707, CS0333 BG / Fold-improvement over ATG3707, CS0333 DR: Table 7A
# Method: as §1
# [3] = Differential scanning fluorimetry (DSF) analysis; type: physicochemical; set-up: key to DSF Tm: melting temperature in °C (heated 30-95 °C at 1 °C/min); settings: for DSF Tm (° C.): Table 7B; for DSF Tm: Table 7A
# Method: To conduct the experiment, Sypro Orange (5000×) was diluted in water to 3× and combined with enzymes stored in 50 mM HEPES pH 7.5, 100 mM NaCl, 2 mM EDTA to a final concentration of 5×. Fluorescence was read at 60 second intervals as the reactions were heated at 1° C. per minute from 30-95° C. The change in fluorescence at each minute was calculated and plotted for each temperature in the range.
# The luciferase enzyme variants generated were also evaluated using DSF analysis as shown in the representative results provided in Tables 7A and 7B above. To conduct the experiments, Sypro Orange (5000×) was diluted in water to 3× and combined with enzymes stored in 20 mM HEPES pH 7.5, 200 mM NaCl, 1 mM EDTA to a final concentration of 5×. Fluorescence was read at 60 second intervals as the reactions were heated at 1° C. per minute from 30-95° C. The change in fluorescence at each minute was calculated and plotted for each temperature in the range.
luminescence CS0280 BG [1],luminescence CS0280 DR [1],luminescence CS0333 BG [2],luminescence CS0333 DR [2],Molecule,"Fold improvement over ATG3707, CS0280 BG [1]","Fold improvement over ATG3707, CS0280 DR [1]","Fold improvement over ATG3707, CS0333 BG [2]","Fold improvement over ATG3707, CS0333 DR [2]",DSF Tm (° C.) [3],"Fold-improvement over ATG3707, CS0280 BG [1]","Fold-improvement over ATG3707, CS0280 DR [1]","Fold-improvement over ATG3707, CS0333 BG [2]","Fold-improvement over ATG3707, CS0333 DR [2]",DSF Tm [3]
"7,501,350","891,010","13,322,000","11,733,600",C9649G7: SEQ ID NO: 98; H244W+T344A+I396K+S193A+N228D+L305F+S306P+I109V+C38R+F55I+K121Q+A316W+Y339M+T344I+V348I (protein) MADKNILYGPEPFYPLEDGTAGEQMFDALSRYAAIPGRIALTNAHTKENVLYEEILKLSCRLAESFKKYGLKQNDTIAVCSENSLQFFLPVIASLYLGIIVAPVNDKYVERELIHSLGIVKPRIVFCSKNTFQKVLNVKSKLKSIETIIILDLNEDLGGYQCLNNFISQNSDSNLDVKKFKPYSFNRDDQVAAIMFSSGTTGLPKGVMLTHKNIVARFSIAKDPTFGDAINPTSAILTVIPFHWGFGMMTTLGYFTCGFRVVLMHTFEEKLFLQSLQDYKVESTLLVPTLMAFLAKSALVEKYDFPHLKEIASGGWPLSKEIGEMVKKRFKLNFVRQGYGLSEATSAILITPKGDAKPGSTGKIVPLHAVKVVDPTTGKILGPNEPGELYFKGPMKMKGYYNNEEATKAIIDNDGWLRSGDIAYYDNDGHFYIVDRLKSLIKYKGYQVAPAEIEGILLQHPYIVDAGVTGIPDEAAGELPAAGVVVQTGKYLNEQIVQDYVASQVSTAKWLRGGVKFLDEIPKGSTGKIDRKVLRQMLEKHTNGHHHHHHHH,9.46,30.48,2.50,2.75,51 °C,–,–,–,–,–
"7,349,470","984,923","12,508,600","11,647,400",C9679H10: SEQ ID NO: 99; H244W+T344A+I396K+S193A+N228D+L305F+S306P+I109V+A316W+T344I (protein) MADKNILYGPEPFYPLEDGTAGEQMFDALSRYAAIPGRIALTNAHTKENVLYEEILKLSCRLAESFKKYGLKQNDTIAVCSENSLQFFLPVIASLYLGIIVAPVNDKYVERELIHSLGIVKPRIVFCSKNTFQKVLNVKSKLKSIETIIILDLNEDLGGYQCLNNFISQNSDSNLDVKKFKPYSFNRDDQVAAIMFSSGTTGLPKGVMLTHKNIVARFSIAKDPTFGDAINPTSAILTVIPFHWGFGMMTTLGYFTCGFRVVLMHTFEEKLFLQSLQDYKVESTLLVPTLMAFLAKSALVEKYDFPHLKEIASGGWPLSKEIGEMVKKRFKLNFVRQGYGLSEATSAILITPKGDAKPGSTGKIVPLHAVKVVDPTTGKILGPNEPGELYFKGPMKMKGYYNNEEATKAIIDNDGWLRSGDIAYYDNDGHFYIVDRLKSLIKYKGYQVAPAEIEGILLQHPYIVDAGVTGIPDEAAGELPAAGVVVQTGKYLNEQIVQDYVASQVSTAKWLRGGVKFLDEIPKGSTGKIDRKVLRQMLEKHTNGHHHHHHHH,9.26,33.69,2.35,2.73,65 °C,–,–,–,–,–
"11,877,500","1,439,510","8,464,030","7,772,660",C9671D10: SEQ ID NO: 100; H244W+T344A+I396K+S193A+N228D+L305F+S306P+I109V+C38R+F55I+Y108F+A316W+Y339M+T344I (protein) MADKNILYGPEPFYPLEDGTAGEQMFDALSRYAAIPGRIALTNAHTKENVLYEEILKLSCRLAESFKKYGLKQNDTIAVCSENSLQFFLPVIASLYLGIIVAPVNDKYVERELIHSLGIVKPRIVFCSKNTFQKVLNVKSKLKSIETIIILDLNEDLGGYQCLNNFISQNSDSNLDVKKFKPYSFNRDDQVAAIMFSSGTTGLPKGVMLTHKNIVARFSIAKDPTFGDAINPTSAILTVIPFHWGFGMMTTLGYFTCGFRVVLMHTFEEKLFLQSLQDYKVESTLLVPTLMAFLAKSALVEKYDFPHLKEIASGGWPLSKEIGEMVKKRFKLNFVRQGYGLSEATSAILITPKGDAKPGSTGKIVPLHAVKVVDPTTGKILGPNEPGELYFKGPMKMKGYYNNEEATKAIIDNDGWLRSGDIAYYDNDGHFYIVDRLKSLIKYKGYQVAPAEIEGILLQHPYIVDAGVTGIPDEAAGELPAAGVVVQTGKYLNEQIVQDYVASQVSTAKWLRGGVKFLDEIPKGSTGKIDRKVLRQMLEKHTNGHHHHHHHH,14.97,49.24,1.59,1.82,65 °C,–,–,–,–,–

# Further lines, the molecule ahead of its results:
Molecule,luminescence CS0280 BG [1],luminescence CS0280 DR [1],luminescence CS0333 BG [2],luminescence CS0333 DR [2],"Fold improvement over ATG3707, CS0280 BG [1]","Fold improvement over ATG3707, CS0280 DR [1]","Fold improvement over ATG3707, CS0333 BG [2]","Fold improvement over ATG3707, CS0333 DR [2]",DSF Tm (° C.) [3],"Fold-improvement over ATG3707, CS0280 BG [1]","Fold-improvement over ATG3707, CS0280 DR [1]","Fold-improvement over ATG3707, CS0333 BG [2]","Fold-improvement over ATG3707, CS0333 DR [2]",DSF Tm [3]
C9644H7: SEQ ID NO: 97; H244W+T344A+I396K+S193A+N228D+L305F+S306P+I109V+C38R+A316W+T342S+V348I (protein) MADKNILYGPEPFYPLEDGTAGEQMFDALSRYAAIPGRIALTNAHTKENVLYEEFLKLSCRLAESFKKYGLKQNDTIAVCSENSLQFFLPVIASLYLGIIVAPVNDKYVERELIHSLGIVKPRIVFCSKNTFQKVLNVKSKLKSIETIIILDLNEDLGGYQCLNNFISQNSDSNLDVKKFKPYSFNRDDQVAAIMFSSGTTGLPNGVMLTHKNIVARFSIAKDPTFGDAINPTSAILTVIPFHWGFGMMTTLGYFTCGFRVVLMHTFEEKLFLQSLQDYKVESTLLVPTLMAFLAKSALVEKYDFPHLKEIASGGWPLSKEIGEMVKKRFKLNFVRQGYGLSEATSAILITPKGDAKPGSTGKIVPLHAVKVVDPTTGKILGPNEPGELYFKGPMKMKGYYNNEEATKAIIDNDGWLRSGDIAYYDNDGHFYIVDRLKSLIKYKGYQVAPAEIEGILLQHPYIVDAGVTGIPDEAAGELPAAGVVVQTGKYLNEQIVQDYVASQVSTAKWLRGGVKFLDEIPKGSTGKIDRKVLRQMLEKHTNGHHHHHHHH,"1,642,120","83,763","15,784,700","11,887,900",2.07,2.87,2.97,2.79,59 °C,–,–,–,–,–
C7612E10: SEQ ID NO: 68; H244W+T344A+I396K+S193A+N228D+L305F+S306P+I109V+V348I (protein) MADKNILYGPEPFYPLEDGTAGEQMFDALSRYAAIPGCIALTNAHTKENVLYEEFLKLSCRLAESFKKYGLKQNDTIAVCSENSLQFFLPVIASLYLGIIVAPVNDKYVERELIHSLGIVKPRIVFCSKNTFQKVLNVKSKLKSIETIIILDLNEDLGGYQCLNNFISQNSDSNLDVKKFKPYSFNRDDQVASIMFSSGTTGLPKGVMLTHKNIVARFSIAKDPTFGNAINPTSAILTVIPFHHGFGMMTTLGYFTCGFRVVLMHTFEEKLFLQSLQDYKVESTLLVPTLMAFLAKSALVEKYDLSHLKEIASGGAPLSKEIGEMVKKRFKLNFVRQGYGLTETTSAVLITPKGDAKPGSTGKIVPLHAVKVVDPTTGKILGPNEPGELYFKGPMIMKGYYNNEEATKAIIDNDGWLRSGDIAYYDNDGHFYIVDRLKSLIKYKGYQVAPAEIEGILLQHPYIVDAGVTGIPDEAAGELPAAGVVVQTGKYLNEQIVQDYVASQVSTAKWLRGGVKFLDEIPKGSTGKIDRKVLRQMLEKHTNGHHHHHHHH,–,–,–,–,–,–,–,–,–,2.22,2.02,2.28,2.27,63
C7573G10: SEQ ID NO: 69; H244W+T344A+I396K+S193A+N228D+L305F+S306P+I109V+A316M (protein) MADKNILYGPEPFYPLEDGTAGEQMFDALSRYAAIPGCIALTNAHTKENVLYEEFLKLSCRLAESFKKYGLKQNDTIAVCSENSLQFFLPVIASLYLGIIVAPVNDKYIERELIHSLGIVKPRIVFCSKNTFQKVLNVKSKLKSIETIIILDLNEDLGGYQCLNNFISQNSDSNLDVKKFKPYSFNRDDQVAAIMFSSGTTGLPKGVMLTHKNIVARFSIAKDPTFGNAINPTSAILTVIPFHHGFGMMTTLGYFTCGFRVVLMHTFEEKLFLQSLQDYKVESTLLVPTLMAFLAKSALVEKYDLSHLKEIASGGAPLSKEIGEMVKKRFKLNFVRQGYGLTETTSAVLITPKGDAKPGSTGKIVPLHAVKVVDPTTGKILGPNEPGELYFKGPMIMKGYYNNEEATKAIIDNDGWLRSGDIAYYDNDGHFYIVDRLKSLIKYKGYQVAPAEIEGILLQHPYIVDAGVTGIPDEAAGELPAAGVVVQTGKYLNEQIVQDYVASQVSTAKWLRGGVKFLDEIPKGSTGKIDRKVLRQMLEKHTNGHHHHHHHH,–,–,–,–,–,–,–,–,–,14.12,19.49,2.81,2.09,62
